Measured values: publication PMC9014129

B1: human CK2α^Lys198Arg (enzyme)
chain: MSGPVPSRARVYTDVNTHRPREYWDYESHVVEWGNQDDYQLVRKLGRGKYSEVFEAINITNNEKVVVKILKPVKKKKIKREIKILENLRGGPNIITLADIVKDPVSRTPALVFEHVNNTDFKQLYQTLTDYDIRFYMYEILKALDYCHSMGIMHRDVKPHNVMIDHEHRKLRLIDWGLAEFYHPGQEYNVRVASRYFRGPELLVDYQMYDYSLDMWSLGCMLASMIFRKEPFFHGHDNYDQLVRIAKVLGTEDLYDYIDKYNIELDPRFNDILGRHSRKRWERFVHSENQHLVSPEALDFLDKLLRYDHQSRLTAREAMEHPYFYTVVKDQARMGSSSMPGGSTPVSSANMMSGISSVPTPSPLGPLAGSPVIAAANPLGMPVPAAAGAQQ

Target: CK2β^1–193-DBCO-Sulfo-Cy5 (human) (UniProt P67870)
Assay: other fluorescence titration; quenching of the fluorescence of 30 nM CK2β^1–193-DBCO-Sulfo-Cy5 by 0.3 nM to 5 µM CK2α variant; Monolith NT.115, mode initial fluorescence; 25°C; 500 mM NaCl, 25 mM TRIS/HCl, pH 8.5, 0.05% Tween 20

Molecule | Kd
human CK2α (from UniProt P68400 1-391) (enzyme) | 13.6 nM
B1 | 6.2 nM
